Laboratory results as given in paper doi:10.1101/746693 (bioRxiv, 2019).

Molecular target: T1, Proteinase Activated Receptor-4 (PAR4)-YFP, wild type (human, UniProt Q96RI0 48-385)
T1 sequence (looked up): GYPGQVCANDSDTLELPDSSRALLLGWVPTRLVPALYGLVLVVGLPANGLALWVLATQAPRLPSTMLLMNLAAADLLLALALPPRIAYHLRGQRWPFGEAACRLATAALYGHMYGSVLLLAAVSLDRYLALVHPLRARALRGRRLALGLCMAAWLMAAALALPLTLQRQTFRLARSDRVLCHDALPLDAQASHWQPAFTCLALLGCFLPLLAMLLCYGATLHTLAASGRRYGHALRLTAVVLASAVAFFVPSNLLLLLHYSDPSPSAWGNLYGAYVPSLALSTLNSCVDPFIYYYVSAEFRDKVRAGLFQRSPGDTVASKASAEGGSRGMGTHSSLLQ
Assay: FRET or BRET

B1: β-arrestin-1-renilla luciferase (natural protein, UniProt P49407 1-418, looked up)
chain: MGDKGTRVFKKASPNGKLTVYLGKRDFVDHIDLVDPVDGVVLVDPEYLKERRVYVTLTCAFRYGREDLDVLGLTFRKDLFVANVQSFPPAPEDKKPLTRLQERLIKKLGEHAYPFTFEIPPNLPCSVTLQPGPEDTGKACGVDYEVKAFCAENLEEKIHKRNSVRLVIRKVQYAPERPGPQPTAETTRQFLMSDKPLHLEASLDKEIYYHGEPISVNVHVTNNTNKTVKKIKISVRQYADICLFNTAQYKCPVAMEEADDTVAPSSTFCKVYTLTPFLANNREKRGLALDGKLKHEDTNLASSTLLREGANREILGIIVSYKVKVKLVVSRGGLLGDLASSDVAVELPFTLMHPKPKEEPPHREVPENETPVDTNLIELDTNDDDIVFEDFARQRLKGMKDDKEEEEDGTGSPQLNNR
With B1 the “EC50 of (N-Me-A)-YPGKF-NH2 for recruitment (BRET)” value was 6.8 µM, the “EC50 of A-(N-Me-Y)-PGKF-NH2 for recruitment (BRET)” value was 14.2 µM and the “EC50 of AYPG-(Nα-Me-K)-F-NH2 for recruitment (BRET)” value was 12.2 µM. The “EC50 of AYPGK-(N-Me-F)-NH2 for recruitment (BRET)” value was 10.4 µM, the “EC50 of Ac-AYPGKF-NH2 for recruitment (BRET)” value was 15 µM and the “EC50 of VYPGKF-NH2 for recruitment (BRET)” value was 33.8 µM.
